This series is described as follows: label from the status in PepcDB records.
On to “MLKIRCQACSTILEASYKISYNAQDMKYKNLPVYEQKDRILEMLEHNQVIVVESPTGSGKTTQLPVILHEAGYSRSGMIGVTQPRRIAALSVSEFISKQLKEPMPGLVGYKMRFEDKTSNDTKIKIMTDGILLQELKLDPWLSKYSVILVDEAHERSLNIDFILGLLKRIITERKDFKVIISSATINTDLFSMYFDGCPVIKIDAITYPVTLIFDPPAVKASTDTQEAETALMDKIASIVGRILSEGRSGAILVFLPGERAIKDCIERLSKEPWYRKLFILPLYGRLSKEEQERVFKSPPFGKKKIVISTNIAETSITINDIAAVIDSGLAKLNFYNPFTFTSSLDETLISRASCNQRRGRAGRTQEGVCYRLYTRKDFETRQLYTLEEIYRTDLSEVVMRMAELGILDFENFDFISPPGKKGIIGAIDTLNMLDALESDRSLSSIGKMMCLFPLAPRQSRIIVEAITRYPDLVEEVLIAAAFLSARSPVIFPEGEEIEARKAHALFDEPLGDFASFLKVFRMYSQALDKERFCKIHYLDDRVMAEIANIKEQLELIVSDMGVPILSGGKMEHYLTAIAKGMIQFVCSAQGRDSYRSLTTEKIFIHPGSCMYKEKEQFIVAGEIVRTSRMYAMSVSPLSKKIIEEVAPALLERKDKRAKKEKDEHRADQKEEKKKPEEESVLIEGTRYLIKKIKGKKHLILPWKEFKLTAEAVFKKYSEENQNGALEQLKGLRGKIEINKSELLSGEKMDLILNVVNNFNIEQIEKTEDEKHFDRNKNYFIEEDLEALVNSLNLLFRTTIAKKTTKQLGFITLFCDGTGHFWFKTSRGFHTALHESLVSLQSLIDLAGENFNEDQKIIVRTIYGKMNKMI”, for which the protein production result was “failed”.
Take “MSYERPLLAPLRAALSRPTPVVHVLIGPRQVGKTTITRQIQESIGISSIYATADSLVPLDSAWIETQWRRAVAEEAASGGPEIRVLILGSSALLMQQGLTESLAGRFFLHRCTHWGYPALEHHHHHH”: the protein production entry is “failed”.
For “MNILKRKTPQNIRFGEQKPKYYFHIRAFAVLLGVFFLLGVYFNWQSILEKMDDKPISAFALVGQNTFTTADDIKESLLKMGELKGFWGQDVAPIQEQIEALPWVKGAIVRKMWPNRLSIWVSEYQPVAFWNQNQFVTLDGIVFQLPSVRLTAKNLPYLGGPDYQSLKVIETWNQIYINLKSNNIMAKGINIDDRGAWQVQLDNDIVLKLGRGDWKSKLERFVTIYPQIDVPENKKIDYIDLRYTAGAAVGMVDR”, the protein production entry is on record as “failed”.
“MKTVLLTGFDPFGGESINPAWEVAKSLHEKTIGEYKIISKQVPTVFHKSISVLKEYIEELAPEFIICIGQAGGRPDITIERVAINIDDARIADNEGNQPVDVPVVEEGPAAYWSTLPMKAIVKKLQEEGIPASVSQTAGTFVCNHLFYGLMHELEKHDTKMKGGFIHIPFLPEQASNYPGQPSMSLSTIRKGIELAVEVTTTVEVDIVEVGGTTH”: the protein production entry was “not failed”.
Consider “TDYDNREKSADIALLKEMNSLRDIIENNSDWIWEVDVAGRYTFSSAKSIELLGRLPHEVIGKTPFDFMPKDEAHRVGKLFAEIAAERIPFAGLQNRNIRADGSEVLIESSGIPLFDHNGEFKGYRGIDRN”, for which the protein production result is “failed”.
In the case of “SLEEVVNELTEEIRELYTADQVPWVIGYSGGKDSTAVLQLVWMALKGLPAEQRTKAVHVISTDTLVENPVVAAWVSASLGTMQDAAQAQGLPVEPHRLTPEIKDTFWVNLLGRGYPAPRPKFRWCTERLKIKPSNAFIRSVVAAHGEAIMVLGIRKTESQARARAMEKHEKRRVRDRLSPNANLPNSLVYSPVEDWTNDDVWEFLMQKPNPWGYTNQDLLTMYQGASSDGECPLVVDSTTPSCGSSRFGCWT” it was “failed”; in that of “MISLPYLQRFALSGQVALVTGSARGLGLRIAQALAGSGAHVLLNGRDAHAVEAAVSDLRQQGLRASALPFDVSDEQATEQAFARIDAEHGRLDILVNNVGARNRKPLAETSPAEIRAMMDTNLVAGILLARLAAQRMVRQRYGRLIAITSVAGELARANDAVYPAAKQGLTGMMRALAVEFGRHGITSNAIAPGAFATETNAAMANDPQAGAAMAARNPTGRWGDPEEIAGAAVFLASPAASYVNGHVLVVDGGLSVQF”, “failed”; in that of “MSVRPVDAALEGLQTMRRRPLTALAWATFSLVMLPILGLLVKIGLGDEGRQVLAGRGSSADPRELLDLVMNLGGAMVLLVALALLLGAVLQAAIIRSVLEPTNDRFAYLRLGKEEIQLLIVSLITWATALLCTIIPSGVVVLGSSLLSGAAAAWFAFLGALSVIGFSLWVAVRLSLLGPHAFSHHHIDIRAAWIQTHGQFWRLLGMFVLTIAIWILVSLLGAAVAGVIGKWLTAAVNLGASGLAASNSWLILSLLANMLLAPVFLTLQTVILVAAPARAFAQLNQDEIDAGLHA”, “failed”.
